Here are results for 26 substances from US20260250352A1.

Where two headings read alike, the source gives them in different places.

What all share (test): cell-based or functional assay
One experiment deals with BAFF 60-mer (human) (UniProt Q9Y275).
For experiment [1], the target named is recombinant human APRIL (human) (UniProt O75888).
The target of experiment [2] is recombinant human BAFF (human) (UniProt Q9Y275).
The target of experiment [3] is recombinant human APRIL (human) (UniProt O75888). This is another data set of the same source.
Experiment [4] deals with recombinant human BAFF (human) (UniProt Q9Y275). This is another data set of the same source.

Chain of 27 TACI CRD2-Fc (Fc fusion) (chain): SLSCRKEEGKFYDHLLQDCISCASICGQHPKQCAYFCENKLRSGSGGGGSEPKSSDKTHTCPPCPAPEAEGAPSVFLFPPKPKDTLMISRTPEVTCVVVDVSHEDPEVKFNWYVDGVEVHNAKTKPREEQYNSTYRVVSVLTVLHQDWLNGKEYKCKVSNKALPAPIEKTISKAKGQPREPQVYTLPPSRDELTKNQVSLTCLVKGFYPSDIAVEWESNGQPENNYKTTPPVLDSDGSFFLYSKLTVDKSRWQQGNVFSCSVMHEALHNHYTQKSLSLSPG
Chain of 29 TACI CRD2-Fc (Fc fusion) (chain): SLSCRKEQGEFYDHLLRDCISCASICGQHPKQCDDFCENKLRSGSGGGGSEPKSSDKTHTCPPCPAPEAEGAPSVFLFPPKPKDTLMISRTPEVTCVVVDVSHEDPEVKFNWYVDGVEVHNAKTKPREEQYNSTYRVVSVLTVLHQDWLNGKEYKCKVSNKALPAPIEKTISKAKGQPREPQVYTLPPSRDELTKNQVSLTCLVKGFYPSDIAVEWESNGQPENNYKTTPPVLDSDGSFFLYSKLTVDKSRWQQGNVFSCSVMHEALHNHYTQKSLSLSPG
Chain of TACI WT 13 GSG4S (74) Fc 73 (G4S)4 (84) TACI WT 13 (Fc fusion) (chain): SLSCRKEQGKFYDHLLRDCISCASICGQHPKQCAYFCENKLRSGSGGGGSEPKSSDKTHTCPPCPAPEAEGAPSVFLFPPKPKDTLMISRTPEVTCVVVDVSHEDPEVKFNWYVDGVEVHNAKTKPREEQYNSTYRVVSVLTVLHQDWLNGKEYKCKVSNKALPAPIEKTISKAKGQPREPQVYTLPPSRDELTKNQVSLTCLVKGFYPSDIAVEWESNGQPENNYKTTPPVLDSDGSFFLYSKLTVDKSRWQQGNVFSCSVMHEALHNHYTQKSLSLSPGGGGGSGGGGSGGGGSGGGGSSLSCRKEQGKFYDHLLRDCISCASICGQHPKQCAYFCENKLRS
Chain of TACI WT 13 (G4S)4 (84) TACI WT 13 GSG4S (74) Fc 73 (Fc fusion) (chain): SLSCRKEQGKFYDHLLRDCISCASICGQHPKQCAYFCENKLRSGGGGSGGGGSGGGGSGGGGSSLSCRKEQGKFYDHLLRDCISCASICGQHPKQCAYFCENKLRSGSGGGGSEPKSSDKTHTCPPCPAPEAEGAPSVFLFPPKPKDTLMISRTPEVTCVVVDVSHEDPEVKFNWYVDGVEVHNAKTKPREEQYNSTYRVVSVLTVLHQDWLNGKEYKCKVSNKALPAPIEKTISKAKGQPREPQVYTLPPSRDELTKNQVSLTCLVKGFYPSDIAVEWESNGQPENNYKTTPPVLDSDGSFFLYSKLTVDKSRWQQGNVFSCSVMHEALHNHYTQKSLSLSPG

On to “TACI WT 13 GSG4S (74) Fc 73 (G4S)4 (84) TACI WT 13 (Fc fusion)”, for which the IC50, Jurkat/NF-kB/TACI reporter with BAFF 60-mer (human) was determined as 2.58 nM; in experiment [1], 11.9 nM; in experiment [2], 1.04 nM.
With “TACI 13-118, with K77E/F78Y/Y102D, Fc fusion”, the IC50, Jurkat/NF-kB/TACI reporter in experiment [1] was 848 nM; in experiment [2] it was 2050 nM; in experiment [3] it was 13.2 nM; in experiment [4], 1.99 nM. Further, the IC50 relative to TACI 30-110 in experiment [1] turned out to be 0.2; in experiment [2], 0.46. The IC50 relative to WT TACI (68-110)-Fc (Δ WT) in experiment [3] and in experiment [4] was 1.07 each time.
Turning to BAFF-R ECD (receptor), in experiment [4], the IC50, Jurkat/NF-kB/TACI reporter turned out to be 53.2 nM and the IC50 relative to WT TACI (68-110)-Fc (Δ WT) worked out at 28.7.
For 177 TACI CRD2-Fc (Q75E) (Fc fusion), in experiment [3], the IC50, Jurkat/NF-kB/TACI reporter was 1.94 nM and the IC50 relative to WT TACI (68-110)-Fc (Δ WT) worked out at 0.16. Also, in experiment [4], the IC50, Jurkat/NF-kB/TACI reporter worked out at 1.46 nM and the IC50 relative to WT TACI (68-110)-Fc (Δ WT) came to 0.79.
The like results for “185 TACI CRD2-Fc (F78Y, A101D) (Fc fusion)” were, in that order, 2.02 nM, 0.16, 1.85 nM and 1.
For “188 TACI CRD2-Fc (R84Q, Y102D) (Fc fusion)”, in experiment [3], the IC50, Jurkat/NF-kB/TACI reporter is 12.3 nM and the IC50 relative to WT TACI (68-110)-Fc (Δ WT) was determined as 1. Further, in experiment [4], the IC50, Jurkat/NF-kB/TACI reporter turned out to be 1.86 nM and the IC50 relative to WT TACI (68-110)-Fc (Δ WT) was 1.01.
27 TACI CRD2-Fc (Fc fusion): the IC50, Jurkat/NF-kB/TACI reporter in experiment [1] is 262 nM; in experiment [2], 1390 nM; in experiment [3] it was 11.8 nM; in experiment [4], 1.46 nM. In addition, the IC50 relative to TACI 30-110-Fc in experiment [1] was found to be 0.07; in experiment [2] it was 0.24. Also, the IC50 relative to WT TACI (68-110)-Fc (Δ WT) stood at 0.96 in experiment [3] and 0.79 in experiment [4].
Take “TACI WT 13 (G4S)4 (84) TACI WT 13 GSG4S (74) Fc 73 (Fc fusion)”: the values for the IC50, Jurkat/NF-kB/TACI reporter (with BAFF 60-mer (human); in experiment [1]; in experiment [2]) were 4.33 nM, 34.6 nM and 3.29 nM, respectively.
For “24 TACI CRD2-Fc (K77E, R84Q) (Fc fusion)”, in experiment [3], the IC50, Jurkat/NF-kB/TACI reporter was 4.26 nM and the IC50 relative to WT TACI (68-110)-Fc (Δ WT) is 0.35. For the same substance, in experiment [4], the IC50, Jurkat/NF-kB/TACI reporter was found to be 2.26 nM and the IC50 relative to WT TACI (68-110)-Fc (Δ WT) amounted to 1.22.
For 183 TACI CRD2-Fc (F78Y) (Fc fusion), in experiment [3], the IC50, Jurkat/NF-kB/TACI reporter was 0.176 nM and the IC50 relative to WT TACI (68-110)-Fc (Δ WT) turned out to be 0.01. Besides, in experiment [4], the IC50, Jurkat/NF-kB/TACI reporter came out at 1.64 nM and the IC50 relative to WT TACI (68-110)-Fc (Δ WT) amounted to 0.88.
For “184 TACI CRD2-Fc (F78Y, R84Q) (Fc fusion)”, in experiment [3], the IC50, Jurkat/NF-kB/TACI reporter amounted to 2.62 nM and the IC50 relative to WT TACI (68-110)-Fc (Δ WT) worked out at 0.21. In experiment [4], the IC50, Jurkat/NF-kB/TACI reporter was determined as 2.26 nM and the IC50 relative to WT TACI (68-110)-Fc (Δ WT) was found to be 1.22.
Regarding “181 TACI CRD2-Fc (Q75E, Y102D) (Fc fusion)”, in experiment [3], the IC50, Jurkat/NF-kB/TACI reporter was determined as 11.1 nM and the IC50 relative to WT TACI (68-110)-Fc (Δ WT) came to 0.9. For the same substance, in experiment [4], the IC50, Jurkat/NF-kB/TACI reporter came out at 2.15 nM and the IC50 relative to WT TACI (68-110)-Fc (Δ WT) came to 1.16.
Turning to “25 TACI CRD2-Fc (K77E, A101D) (Fc fusion)”, in experiment [3], the IC50, Jurkat/NF-kB/TACI reporter worked out at 2.04 nM and the IC50 relative to WT TACI (68-110)-Fc (Δ WT) was 0.17. Also, in experiment [4], the IC50, Jurkat/NF-kB/TACI reporter was determined as 1.96 nM and the IC50 relative to WT TACI (68-110)-Fc (Δ WT) was determined as 1.06.
For “191 TACI CRD2-Fc (K77E, F78Y) (Fc fusion)”, in experiment [3], the IC50, Jurkat/NF-kB/TACI reporter was determined as 10.1 nM and the IC50 relative to WT TACI (68-110)-Fc (Δ WT) is 0.82. In experiment [4], the IC50, Jurkat/NF-kB/TACI reporter is 1.97 nM and the IC50 relative to WT TACI (68-110)-Fc (Δ WT) was determined as 1.06.
Regarding “178 TACI CRD2-Fc (Q75E, K77E) (Fc fusion)”, in experiment [3], the IC50, Jurkat/NF-kB/TACI reporter came out at 10.7 nM and the IC50 relative to WT TACI (68-110)-Fc (Δ WT) is 0.87. Besides, in experiment [4], the IC50, Jurkat/NF-kB/TACI reporter came to 1.89 nM and the IC50 relative to WT TACI (68-110)-Fc (Δ WT) is 1.02.
With “180 TACI CRD2-Fc (Q75E, A101D) (Fc fusion)”, in experiment [3], the IC50, Jurkat/NF-kB/TACI reporter was 20 nM and the IC50 relative to WT TACI (68-110)-Fc (Δ WT) was found to be 1.62. In experiment [4], the IC50, Jurkat/NF-kB/TACI reporter worked out at 2.36 nM and the IC50 relative to WT TACI (68-110)-Fc (Δ WT) was 1.27.
Turning to 190 TACI CRD2-Fc (Y102D) (Fc fusion), in experiment [3], the IC50, Jurkat/NF-kB/TACI reporter came out at 11.6 nM and the IC50 relative to WT TACI (68-110)-Fc (Δ WT) worked out at 0.94. In addition, in experiment [4], the IC50, Jurkat/NF-kB/TACI reporter came to 1.86 nM and the IC50 relative to WT TACI (68-110)-Fc (Δ WT) amounted to 1.
The like results for “182 TACI CRD2-Fc (K77E, F78Y, R84Q) (Fc fusion)” were, in that order, 10.1 nM, 0.82, 2.21 nM and 1.19.
In the same order, the values of 32 TACI CRD2-Fc (K77E) (Fc fusion) are 0.159 nM, 0.01, 1.54 nM and 0.83.
Regarding 23 TACI CRD2-Fc (A101D) (Fc fusion), the IC50, Jurkat/NF-kB/TACI reporter in experiment [3] turned out to be 8.38 nM; in experiment [4], 1.83 nM. Also, the IC50 relative to WT TACI (68-110)-Fc (Δ WT) is 0.68 in experiment [3] and 0.99 in experiment [4].
In the case of 29 TACI CRD2-Fc (Fc fusion), the IC50, Jurkat/NF-kB/TACI reporter in experiment [1] was 339 nM; in experiment [3], 2.91 nM; in experiment [4], 1.18 nM. For the same substance, the figures for the IC50 relative to TACI 30-110-Fc in experiment [1] and in experiment [2] were 0.09 and 0.23, respectively. Besides, the IC50 relative to WT TACI (68-110)-Fc (Δ WT) in experiment [3] was determined as 0.24; in experiment [4], 0.64.
Take “187 TACI CRD2-Fc (R84Q, A101D) (Fc fusion)”: the IC50, Jurkat/NF-kB/TACI reporter in experiment [3] worked out at 11.2 nM; in experiment [4], 2.35 nM. Moreover, the IC50 relative to WT TACI (68-110)-Fc (Δ WT) turned out to be 0.91 in experiment [3] and 1.27 in experiment [4].
As to “179 TACI CRD2-Fc (Q75E, F78Y) (Fc fusion)”, the IC50, Jurkat/NF-kB/TACI reporter is 13.4 nM in experiment [3] and 1.79 nM in experiment [4]. Also, the IC50 relative to WT TACI (68-110)-Fc (Δ WT) in experiment [3] came to 1.09; in experiment [4] it was 0.97.
The like results for “189 TACI CRD2-Fc (A101D, Y102D) (Fc fusion)” were, in that order, 33.6 nM, 1.95 nM, 2.72 and 1.05.
Consider “192 TACI CRD2-Fc (K77E, Y102D) (Fc fusion)”, for which, in experiment [3], the IC50, Jurkat/NF-kB/TACI reporter stood at 0.891 nM and the IC50 relative to WT TACI (68-110)-Fc (Δ WT) turned out to be 0.07. In addition, in experiment [4], the IC50, Jurkat/NF-kB/TACI reporter is 2.18 nM and the IC50 relative to WT TACI (68-110)-Fc (Δ WT) was found to be 1.17.
With “186 TACI CRD2-Fc (F78Y, Y102D) (Fc fusion)”, the IC50, Jurkat/NF-kB/TACI reporter amounted to 8.49 nM in experiment [3] and 1.96 nM in experiment [4]. Moreover, the IC50 relative to WT TACI (68-110)-Fc (Δ WT) was determined as 0.69 in experiment [3] and 1.06 in experiment [4].
